From the supplement of paper PMC9170038 come the findings set out here.

For this data set, the system named is K4 kissing-loop RNA reporter. In words: apparent KD of K4 kissing-loop reporter; higher = weaker reporter binding. The settings on record: Eterna round: R107. Here is the method:
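RNA-MaP round R107: designed RNA switches with theophylline, tryptophan, arginine or FMN aptamers are transcribed on-chip within common flanks. They are titrated with a labelled K4 kissing-loop RNA reporter in RNA-MaP buffer (100 mM Tris pH 7.5, 80 mM KCl, 4 mM MgCl2), without ligand or with the indicated ligand. Median apparent KD per design.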

The mark [1] stands for this setting: input ligand: theophylline 20 uM.
Setting [2] is: input ligand: tryptophan 2.4 mM.
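Further: bound reporter read as fluorescence of individual clusters on recovered sequencing chips by microscopy, with normalized cluster intensities fitted with a binding model.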

With “UUCAGACUACUACUAUUUAGUAGUAUAUACUAGGAUAUCCAGAUAUGGAGAAGGAGUGAUGUUCCUUAGUAGUAGUGAAUUAAAU [KL-XFMN-A6]”, the “apparent KD of K4 kissing-loop reporter” value by setting is: (input ligand: FMN 200 uM) 145 nM; (input ligand: arginine 13.2 mM) 138 nM; (input ligand: none) 128 nM; under setting [1], 144 nM; under setting [2], 114 nM.
The matching figures for “UUCGGCCUGACGGCCGCCACUUUGGGUAGUGAUGUUACCAACAUUCACCAGAUACAGGUUACUUCAAGGACCGGGUCAGACGGUG [theeternabot_exclusion_KL_Trp_B_45]”: 104 nM, 100 nM, 121 nM, 107 nM and 92.8 nM.
The matching figures for “UUCGUCGCGCAUGAUACCAGCGAGAUUUAACGCCGAAUCCUCACGCAGUGAUGUUGCACCCGCCCUUGGCAGCAUAGCCGGUUAC [theeternabot_sameState_KL_Theo_B_13]”: 250 nM, 304 nM, 328 nM, 344 nM and 199 nM.
“UUGCGUCUCUGAGGAUAUCAGAACAGAGUGAUGUUCUGUCAACGCCCAGUGAUGUUGGAUGCGAUCUGAGAAGGCAGUGGGCGCG [Same State FMN B GF 10]”: the “apparent KD of K4 kissing-loop reporter” value turned out to be 202 nM (input ligand: FMN 200 uM); 188 nM (input ligand: arginine 13.2 mM); 219 nM (input ligand: none); 177 nM under setting [1]; 184 nM under setting [2].
As to “UUGUUAUGAUAAAAUCCUGUUUGAUAAAGACAGGAUAUAGAAAAUACUAGAAGGGUCAUUAUAUGCAGUGAUGUUGCAAAUAAGU [Exclusion FMN A Gf 22]”, the “apparent KD of K4 kissing-loop reporter” value runs as follows: (input ligand: FMN 200 uM) 41 nM; (input ligand: arginine 13.2 mM) 60.8 nM; (input ligand: none) 38.4 nM; under setting [1], 55.1 nM; under setting [2], 35 nM.
Turning to “UUGUUUGGUUGAGAGGUUGGGCGAGAUGAUACCAGUAGAUAAGAAUACCCUUGGCAGCAUAAGAAAGAUAUAGUGAUGUUGUAUA [SSTheophA.N]”, the “apparent KD of K4 kissing-loop reporter” value is, setting by setting: (input ligand: FMN 200 uM) 566 nM; (input ligand: arginine 13.2 mM) 386 nM; (input ligand: none) 553 nM; under setting [1], 525 nM; under setting [2], 478 nM.
With “UUUAACGAGUGAUGUUCGAAAAGUAAUGGUGAGGAUAUCGUUUUUUCGAGAAGGCACCUCGAAGUGAUACGAAAGUAUCGCUUCG [FMN A 3]”, the “apparent KD of K4 kissing-loop reporter” value (input ligand: FMN 200 uM) was found to be 172 nM; the “apparent KD of K4 kissing-loop reporter” value (input ligand: arginine 13.2 mM) is 332 nM; the “apparent KD of K4 kissing-loop reporter” value (input ligand: none) is 315 nM; the “apparent KD of K4 kissing-loop reporter” value under setting [1] came out at 314 nM; the “apparent KD of K4 kissing-loop reporter” value under setting [2] is 266 nM.
Regarding “UUUAACGAGUGAUGUUCGUAAAGUAAUAGUUAGGAUAUCGUUUUUUCGAGAAGGAACUUCGAAGUGAUACGAAAGUAUCGCUUCG [FMN A 8]”, the “apparent KD of K4 kissing-loop reporter” value reads like this: (input ligand: FMN 200 uM) 136 nM; (input ligand: arginine 13.2 mM) 192 nM; (input ligand: none) 192 nM; under setting [1], 205 nM; under setting [2], 152 nM.
In the case of “UUUAGGAGUGGUGUUGAUUAGGGAGCGGAAGGAGCGCCGAGGAAGGCAGGUAGGUCGCCGGAUUAUAGUGAUGUUAUGAAGAGGG [ExArg.M]”, the “apparent KD of K4 kissing-loop reporter” value is, setting by setting: (input ligand: FMN 200 uM) 875 nM; (input ligand: arginine 13.2 mM) 723 nM; (input ligand: none) 792 nM; under setting [1], 912 nM; under setting [2], 654 nM.
Consider “UUUAUUAAGACGGCCGCCACUGAAUCAUAGUGAUGUUAUGAUAUAAUUUUAGUGAUUUUGAUUAGCAGGACCGGGUCAAUUAUUA [#26 K4 Tryptophan B Exclusion]”, for which the “apparent KD of K4 kissing-loop reporter” value (input ligand: FMN 200 uM) turned out to be 165 nM; the “apparent KD of K4 kissing-loop reporter” value (input ligand: arginine 13.2 mM) is 133 nM; the “apparent KD of K4 kissing-loop reporter” value (input ligand: none) stood at 144 nM; the “apparent KD of K4 kissing-loop reporter” value under setting [1] worked out at 139 nM; the “apparent KD of K4 kissing-loop reporter” value under setting [2] amounted to 140 nM.
Take “UUUCGGUUCUGAGGAUAUUCGGACAAAUAUAGUGAUGUUGUAUAAGGAGGAGGGUGUUGGCAGUGCGGAGAAGGCAGACCAGGAU [ExFMNB.W]”: the “apparent KD of K4 kissing-loop reporter” value was found to be 853 nM (input ligand: FMN 200 uM); 557 nM (input ligand: arginine 13.2 mM); 1170 nM (input ligand: none); 878 nM under setting [1]; 546 nM under setting [2].
The matching figures for “UUUGGAGUGGGAGGAUAUCCUAAUAUGGGUGAUGUUAGCGAUGUUGAAAGUGUAGUGAUGUUGUGCGGAGAAGGUCCAGUGUAGA [BDazzled - #14 - Exc. FMN B]”: 242 nM, 165 nM, 285 nM, 292 nM and 240 nM.
For “UUUUAAAUAUCUGAUACCAGAGCGAAUAUAUGUAGUGAUGUUAUAUACAAAAUAAAUAAGCUCCCUUGGCAGCAGUAUUAAUUUU [Astros-ExyTheB#?#ED14.66]”, in that order: 1020 nM, 829 nM, 919 nM, 961 nM and 968 nM.
Regarding “UUUUAAAUGUCUGAUACCAGAGAAAAUAUAUGUAGUGAUGUUAUAUACAAAUUUAAUAAGCUCCCUUGGCAGCAGUAUGAAUUUU [AstrosExc-TheB#12]”, the “apparent KD of K4 kissing-loop reporter” value amounted to 616 nM (input ligand: FMN 200 uM); 766 nM (input ligand: arginine 13.2 mM); 873 nM (input ligand: none); 784 nM under setting [1]; 552 nM under setting [2].
With “UUUUUCCCGCAGGAUACCAGCAACCAAACGUCAUGCGAAGUGAUGUUUCGCUUACGGUAGUGCCCUUGGCAGCCUUCGGUAGGGU [thingy]”, the “apparent KD of K4 kissing-loop reporter” value came to 196 nM (input ligand: FMN 200 uM); 161 nM (input ligand: arginine 13.2 mM); 183 nM (input ligand: none); 119 nM under setting [1]; 161 nM under setting [2].
In the case of “UUUUUCGCGUUUGAUACCAGCAGAGUUGUUCUUGUCUGGAACAUGAGUGAUGUUCAUGUCUGCCCUUGGCAGCAAACGGGAGAAG [KL-XTheo-B12]”, the “apparent KD of K4 kissing-loop reporter” value reads like this: (input ligand: FMN 200 uM) 122 nM; (input ligand: arginine 13.2 mM) 111 nM; (input ligand: none) 110 nM; under setting [1], 114 nM; under setting [2], 116 nM.
For “UUUUUUUACUGAAGGAGCGGCAAUUGAUACGUAGAUAUAGUGAUGUUAUAUAAGAUAGAGAGCCAGGUAGGUCGCAGAUUUUUUC [ExArgB.X]”, in that order: 194 nM, 160 nM, 172 nM, 143 nM and 129 nM.
